Assay results: the DeepSol protein solubility set

Assay: soluble on expression in E. coli; label from the status in PepcDB or PDB records

| Sequence | soluble on expression in E. coli |
| --- | --- |
| PISSEQKQLISQLTDLGYSFDGLQTGYPGGEPDWHYVKELSGIEEKDLIKSFSKKGKPLVKKAKTFGIKLKKLKRDELSIFKEITSATSDRREYSDKSLDYYQDFYDAFGDNADFMVATLNFQDYFDHLESNQAKLRARIVKLQADLETNPTSEKKQNQLRELSSQLETFDVRKGEATAFIDKYGQEDIVLAGSLFVYTPQEAVYLFSGSYPEFNKFYAPALLQEYVMTQAIKRGIGFYNFLGIMGIFDGSDGVLRFKQNFNGYIVRKMGTFRYYPQPLKYKAIQGVKKLLGRN | not soluble |
| MKLIFLSGVKRSGKDTTADFIMSNYSAVKYQLAGPIKDALAYAWGVFAANTDYPCLTRKEFEGIDYDRETNLNLTKLEVITIMEQAFCYLNGKSPIKGVFVFDDEGKESVNFVAFNKITDVINNIEDQWSVRRLMQALGTDLIVNNFDRMYWVKLFALDYLDKFNSGYDYYIVPDTRQDHEMDAARAMGATVIHVVRPGQKSNDTHITEAGLPIRDGDLVITNDGSLEELFSKIKNTLKVL | soluble |
| METALVSIIMPMYNAGKFLSKSIESVLEQTYQNWELLLIDDGSKDDSIDIALAFMEKDSRIFLLKNEQNMGIAKTRNKGIEASKGQYIAFLDSDDLWLPNKLEVQVKWMEEKKLLFTCSSYFVCNENGNITHERNFSEGPQTYQDLLKTNTIGCLTVVVESNLLKRHLMPDLKHEDYATWLNILKEINTVYFINEKLAIYRKLTTSTSSNKWNTISWVWKILRQNEQFSVIKSSFYLMRFLFYTTFKYAKNELEHHHHHH | soluble |
| MNGRRWMVLAAVVGVSTLSACASQGHDSDETLPTYTPPAWMAEVRAQNEEYANAGVACLAAHGVEGTADNGTFGISYGPQSQGALTHMTDEEADALLTECSESLSLPDYVNNSADEEYDRVLDLRECVIAQGYDMPDAPSREVWTEQWERTRDAWVPYYHEMTLDPDGLERHKVTVEEMNRLQSICVPSTVGATTVSR | not soluble |
| MGSDKIHHHHHHMFGYVKINKMDLTFREYDYYKAYYCGLCKYLKRNHGEISRFSLNYDITFLIVLLTAVYNPESISTEEVCIVNPFKKKKVITNDITEYAASMNILLTYYKLEDNLMDDKRIKDKLAYYIYKNKLKLAYEKYPEKAEYIKQQLNELNKLEKDKNINIDEVSSIFGNIMGEVFVYKKDENERNLRMIGFNIGKYIYLLDAYEDLDEDFKKGRYNPFIEYIDKNDELKEKVKKIIVTSLGFLARGIDNLNLNKNVGIIENIIYSGVYLRYINILESRGGKNVQ | not soluble |
| MGSDKIHHHHHHMIDVTFDPTLANTLAQSLKLTAIALPLDLQIGDLTRLTDAKNSYWGLKARYTKSGGASAEFAAVTTSQQRLQQVLATGATLRVWTSVNPADQLGWGWLCSQLVQAQFMGVIQRIQIPLSGPVMTEMGPVFMQNSTIGELDEPALEHDLATAKVVTAADWVAFSYHWQACYEDNAALRLILGGRVVGVPQDFLDPLVRTCYRPEQSTAQTLGRILDNYPIGMPNWWWQYRIDQIAKASVR | not soluble |
| MSLRKDLSEKVLIADGAMGTLLYSYGVDRSFEELNLSHPEDIVAIHKAYIGAGADIIQTNTYGANYIKLARYGLEDEVKRINQAAIRLAKEAARGTGTYIFGTIGGINGAVDARLPAAPLEEIKRSFREQLYCFLLDGVDAILLETYYDLDELKTVLKILRETTDLPVVANVSMHEPGILQNGKKLPDALEELIALGADVVGINCRLGPYHMARALETVPLYDNAYLAVYPNASLPEMQEGKVIYQSDTDYFEHYGEVFRQEGARIIGGCCGTTPDHIRALRKGLETTKPILEKEVRPILELVPEEVEDVDSGERLLDKVKERLTILVELDPPRTFDTTKFFEGAQALDEAGVDAITISDNSLATPRISNMALASILKHEYGIKPLIHLTTRDHNLVGMHSHVMGFHKLGLHDVLAITGDPTKVGDFPGASSVFDLRSVELVQLIKKFNDGISYTGKSLKEKARFHVGAAFNPNVLNLEKAVRLIERKVEYGADYIITQPIYDVNKAILLKEALQKANIDVPLFIGVMPLLSSRNAEFLHNEVPGIRLTDDVRERMREAEEHGHANEEGMAIARELVDAICEHFQGIYIITPFLRYDLSIELAKYAQNKQQVQIGSKEGHHHHHH | soluble |
| MSLKITDVRVIRFRTHADRWDIGHARLRPAAEVSQTVTCIDTDAGLTGWFFGGGKHGDQDGMSPDEQRLIEGRVRDLLLGVDPFDREAVWKWMWVANLPEVAQSVIDCALWDLAGRAAGQPVYKLMGAARDKVPAYASTYPNIGPPQVYAEHALACRAEGYKAYKIHPHYFWNPDTGLPTKGRPSNIRADIETINLVREAVGPDMVLMYDVWGTYHTIEETIKVGRELERNDFYWFEHPMPEYRVESYRRLCRELSIPILAPEIAAGGVFTRAEWILQGASDMSRMDIRRGGVTGCRKTAVVCEAFGQRCEIHMAGWGNLQVMGATSQDTSEWYEKGLLAPGVDYDAPHPYLERNCDPMDAEGHVALPTAPGLGYEPIWDYIDDNRVPSEGHHHHHH | soluble |
| MKIATYNVRVDTEYDQDWQWSFRKEAVCQLINFHDWSLCCIQEVRPNQVRDLKAYTTFTCLSAEREGDGQGEGLAILYNEQKVQAIDTGYFWLSETPQQPSIHPEAGCPRIALWGLFKETTQNTPFLVINVHLDHISAHARLAGMTVILEELHDKIAQYPTLLMGDFNAESGEEVHQLVQKKFQDSKNLATHYGPRGTFQNFTYTKPWAELEEIDYIYVKGWQVQQTASLTDSIDGRFPSDHFPLEAEVCIEER | not soluble |
| MDLEYAMNPGGRRRFQNKDQATYGVFAPDSDDDDDEQGTSRGPYKKRSKISAPMSFVSGGIQQGNKIDKDDPASLNLNLGGEKKPKEDDEGSIQIDFDKRTKKAPKQNGAQVFAGMRSSANHGAADINQFGSWMRGDGNSNKIMKMMQAMGYKPGEGLGAQGQGIVEPVQAQLRKGRGAVGAYGKESTATGPKFGESAADAQKRMAQEGTSSRPTNDDQEKSGLKIKGSWKKSQTVKTKYRTIEDVMEEGMSASRPASHQQSQQYSNIKVIDMTGKQQKIYSGYDSFSMKTRSEYDTVDDEERTVFDVPELIHNLNLLVDLTEEGIRRSNQQLISLKDQTTALEYDLQQVQKSLGTEEQEAQHIKDVYELIDGFSSNRSPSMEECQELFRRLRSEFPHEYELYSLETVAIPTVLPLIQKYFVAWKPLEDKNYGCELISTWRDILDDSKNGRKMTFGHNKTKGDEIRAYDRIIWEGILPSIRRACLQWDPSTQMHEMIELVEQWIPLLSAWITENILEQLVVPKIAERVNQWDPMTDEIPIHEWLVPWLVLLGDRIQTVMPPIRQKLSKALKLWDPMDRSALETLRPWQNVWSAATFSAFIAQNIVPKLGVALDTMELNPTMNPEYPEWTACMEWLEFTHPDAIANIVTKYFFPRFYNCLCLWLDSPGVDYNEVKRWYGSWKARIPQVLVNYPTVNENLRRSMIAIGRSLQGEKVGGLQATPIAPMAPPPPMAPHFTQAAPVQKLSLKEIIEYTAGKNGFTYHPQKDRYKDGRQVFWFGALSIYLDSEMVYVMDPIEFVWRPSGLNELIQMAQGAQG | not soluble |
| MTTQAPTFTQPLQSVVVLEGSTATFEAHISGFPVPEVSWFRDGQVISTSTLPGVQISFSDGRAKLTIPAVTKANSGRYSLKATNGSGQATSTAELLVKAETAPPNFVQRLQSMTVRQGSQVRLQVRVTGIPTPVVKFYRDGAEIQSSLDFQISQEGDLYSLLIAEAYPEDSGTYSVNATNSVGRATSTAELLVQGETREEF | soluble |
| MPASVTHVIFDFDGLLVDTESAYTEANMELLRKYGHVFTMDLKRRQMGKRHDESIRWLINELKIGDLVTPEEYSRQYDELLIEMFKRSPAMPGAEKLVRHLLHTGVPVALCTGSCSRTFPTKLDNHKDWVNMIKLQVLSGDDPEVKHGKPHPDPFLVTMKRFPQVPESADKVLVFEDSYNGVLSALDAGMQCVMVPERSIFDPDSDPEFKNRVTVILNSLEQFKPEDFGLPPY | not soluble |
| MYRKEWQDPDRIVDQLPISPGFDIVDLGCGPGFFTLPLASRTDGKVYAVDASDEMIEILKERIDGHSNIIPVKARAENIPIPDGTVDLVFIANAFHDFDDRDAVLGEIYRILRDGGYLVDIDWKKDETTHGPPVDIRIDRKDALLLISSHNFDIVKEIEAGAHHYGLLFRKN | not soluble |
| MSALFEPYTLKDVTLRNRIAIPPMSQYMAEDGMINDWHHVHLAGLARGGAGLLVVEATAVAPEGRITPGCAGIWSDAHAQAFVPVVQAIKAAGSVPGIQIAHAGRKASANRPWEGDDHIAADDTRGWETIAPSAIAFGAHLPKVPREMTLDDIARVKQDFVDAARRARDAGFEWIELHFAHGYLGQSFFSEHSNKRTDAYGGSFDNRSRFLLETLAAVREVWPENLPLTARFGVLEYDGRDEQTLEESIELARRFKAGGLDLLSVSVGFTIPDTNIPWGPAFMGPIAERVRREAKLPVTSAWGFGTPQLAEAALQANQLDLVSVGRAHLADPHWAYFAAKELGVEKASWTLPAPYAHWLERYR | soluble |
| MGSDKIHHHHHHAQKGVDNGTQFGSGEDSVRCITNISLFVPYAKAGNFKDAYDFWKIVYDECPAATKDIYLYGVKIMGWKIAQEKDPAKKNALIDDLMGVYDKRVKYFGNDRRYGKDWIVARKVQDYLAQTGDNADYNQAYTWLKEIVDEKGADTEALGLSLFSFSSMKKMLNDPNFKEQYIQDYLKVSAGLDAQLKAAQAANNQKEVNALTAYKSGVDNAFANSGAADCETLQNLYAAKIEENKDNLPYLKETISLLRRTGCQEIEAYFLASDYAYRQEPSAEAAVGLGKKAVKIKDYDTAIKYFDEAANLETDATSKADDYYMIALLLFEQNAYSKARQYCQKALEVNPNYGNAYLLIGKMYAATSKSVFPNDGVLARAAYNAAIDKFEKAKQVDPSVAEEANTLISSYRAHLPSTEEIFMHPDLEKGKPFTVGGWIGERTTIR | not soluble |
| MGSDKIHHHHHHMNIQKVTFRNADMAWDMAALILLPEGFDESKRYPTMVSVHPFGSCKEQTSSAVYGKALAELGYVVIAFDASFQGESGGSPRYVEDPSQRVEDISRVIDYAVSLPYVDEDRIGGLGICGGGAYIFSSALTEKRLKAVVGITPVNLGRLFREGFSQYNPIGALEAMATQRTAEARGAELQVNELLPPSPEFAKQNGMTERDLFEATDYYKTPRGQAEGGATRMLFSHAQKTLSWDAFAFVETLMTQPMMAVVGQKLGAFGAYRDGHEVYGRSIVSKDRQLVELQDWSHYDLYDHPQAVSLAMEKIGPFLSQHL | not soluble |
| MISSTKLSILALALVGAVLARPQFPGGPPPGMSAVPPPIAAVLPPETLARLEAIHADSSLSELEKHKAIDTIMVNLPEEVHDRIPPPPGFAQLPAEVQAQLKTIHRDKNLDFQERQAAIHGVLENLAPEFKRLLPPPPPGFPQRRQ | soluble |
| MYQDLIRNELNEAAETLANFLKDDANIHAIQRAAVLLADSFKAGGKVLSCGNGGSHCDAMHFAEELTGRYRENRPGYPAIAISDVSHISCVGNDFGFNDIFSRYVEAVGREGDVLLGISTSGNSANVIKAIAAAREKGMKVITLTGKDGGKMAGTADIEIRVPHFGYADRIQEIHIKVIHILIQLIEKEMVK | soluble |
| MSVQLKCDAVNCVYNRSHLCSAEEIEVQGGETTGGDATFCGTFSSKSLGNFVSSLGNMNYSGSLKQAVSAEPIMDPKVHCNAVNCTYNDQRYCHADQVEIRNEVSHTAEELEHHHHHH | soluble |
| MAETKRMTVSQALVEFLGHQWTVDGDIRERTIPGMFGIFGHGNVAGIGQALKQYNVEQPELMPYYQARNEQAMVHQSVGYARMHRRRGTYASAASVGPGATNLLTGAALATTNRLPALLLPSDTFATRVADPVLQQLEQPWDIGLTVNDAFRPVSKFFDRVQRPEQLFSIALAAMRVLTDPAETGAVTIALPEDVQAEMLDVPVEFLQDREWHIRRPR | not soluble |
